According to the nanobody polyreactivity screen of Harvey et al. (2022):

Assay: yeast display, Sf9 membrane polyspecificity reagent, FACS + sequencing; frameworks hold sequencing errors
How it was run: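 Galactose induction of a Saccharomyces cerevisiae BJ5465 synthetic nanobody display library ran 36–48 hours. The cells were then stained for 1 hour at 4 °C with 10% biotinylated, detergent-solubilized Sf9 membrane reagent, pulled down on streptavidin microbeads and FACS-sorted into low and high (top ~1%) gates on expression and reagent-binding fluorescence. Labels for polyreactivity follow the gate of origin.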

| Sequence | polyreactivity (PSR sort gate) |
| --- | --- |
| QVQLVESGGGLVQAGGSLRLICAASGRIFLTYAMGWYRQAPGKERELVAAISTSGTRTYYADSVKGRFTISRDTAKKTVYLQMNSLKPEDTAVYHCAREKYNYRTYEYWGQGTQVTVSS | high polyreactivity |
| QVQLVESGGGLVQAGGSLRLICAASGRIFPSNAMGGSIQAPGKERELVAAINTGGSTYYADSVKGRFTISRDNAKNTVYLQMNSQKPEDTAVYYCAAARRYYYYWGQGTQVTVSS | high polyreactivity |
| QVQLVESGGGLVQAGGSLRLICAASGRIFRYYAMGWSRQAPGKERELVAAIRSASSTYYADSVNGRFTISRDNAKITVYLKMNSLIPEDTSVYYCADRLYGVYKRRYYYWGQGTQVTVSS | high polyreactivity |
| QVQLVESGGGLVQAGGSLRLICAASGRIFVPYVMGWYRQAPGKERELVASISDSDTSTYYADSVKGRFTISRDNAKNTVYLQMNSVKPEDTAVYYCNVDYWGQGTQVTVSS | low polyreactivity |
| QVQLVESGGGLVQAGGSLRLICAASGRIFVYYAMGWYRQAPGKERELVAAISSGGSTYYADSVKGRFTISRDNAKNTVYLQMNSLKPEDTAVYYCAADPQRGRRIGYYWGQGTQVTVSS | low polyreactivity |
| QVQLVESGGGLVQAGGSLRLICAASGRILDNYAMGWYRQAPGKERELVAAISASGASTYYADSVKGRFTISRDNAKNTVYLQMNSLKPEDTAVYYCNAAARYRWQYDYSLYEYGHWGQGTQVTVSS | high polyreactivity |
| QVQLVESGGGLVQAGGSLRLICAASGRTFAGNAMGWYRQAPGKERELVAAISQGGGYTYYADSVKGRFTISRDNAKNNVYLQMNSLKPEDTAVYYCAAEIPRRWASFATLWYDYLGQGTQVTVSS | low polyreactivity |
| QVQLVESGGGLVQAGGSLRLICAASGRTFGTHTMGWYRQAPGKERELVAAISSRGGTTYYADSVKGRFTISRDNAKNTVYLQMNSLKPEDTAVYYSNTGTRAIQRDGFEYWGQGTQVTVSS | low polyreactivity |
| QVQLVESGGGLVQAGGSLRLICAASGRTFKRYVIGWYRQAPRKERELVATITRGGSTTYADSVKGRFTISRDNAKNTVFLQMNSLKPEDTAVYYCIADLYQVYLSDYWGQGTQVTVSS | high polyreactivity |
| QVQLVESGGGLVQAGGSLRLICAASGRTFRYNAMGWYRQAPGKERELVASITSGGSTNYADSVKGRFTISRDHAKNTVYLQMNSLKPEDTAVYYCAKDHYYRYEDGDYWGQGTQVTVSS | low polyreactivity |
| QVQLVESGGGLVQAGGSLRLICAASGRTFSFYARVWYRQAPGKETEFVAAITGSGGSTYYADSVKGRFTISRDNAKNTVYLKMNSLKPEDTAVYYCAKRSAWHTYRYGYWGQGTQVTVSS | high polyreactivity |
| QVQLVESGGGLVQAGGSLRLICAASGRTFSGNTMGWYRQAPGKERELVAAITGRGGSTYYADSVKGRFTISRDNAKNTVYLQMNSLKPEDTAVYYCAALRYTFAGRFDYWGHGTQVTVSS | high polyreactivity |
| QVQLVESGGGLVQAGGSLRLICAASGRTFSNAMGWYRQAPGKERELVADISSGGSPNYADSVKGRFTISRDNAKNTVYLEINSLKPEDTAVYYCAAFSGCLYGYSDDYWGQGTQVTVSS | low polyreactivity |
| QVQLVESGGGLVQAGGSLRLICAASGRTFWNYAMGWYRQAPGKERELVAVIRFSDGSTYYADSVKGRFTISRDNAKNTVYLQMNSLKPEDTAVYYCAAKGPRRWGSGFDYWGQGTQVTVSS | low polyreactivity |
| QVQLVESGGGLVQAGGSLRLICAASGRTFYNAMGWYRQAPGKERELVAAISSAGRTYYADSVKGRFTISRDNAKNTVYLQMNSLKPEDTAVYYCAATAFSYYPYHGDYWGQGTQVTVSS | high polyreactivity |
| QVQLVESGGGLVQAGGSLRLICAASGRTFYSYAMAWYRQAPGQERELVAAISSGGTTYYADSVKGRFTISRDNAKNTVYLQMNSLKPEDTAVYYCATSRAWRYRSYYWGQGTQVTVSS | high polyreactivity |

| Sequence | polyreactivity (PSR sort gate) |
| --- | --- |
| QVQLVESGGGLVQAGGSLRLICAASGRTIDHYAMGWYRQAPGKERELVAAISTTGGSTYYADSVKGRFTISRDNAKNTVYLQMNSLKPEDTAVYYCAARGLRTGGYWGQGTQVTVSS | high polyreactivity |
| QVQLVESGGGLVQAGGSLRLICAASGRTNGVYVMGLYRQAPGKERELVAAIRKGVGSTYYADSVKGRFTISRDNAKNTVYLQMNSLKPEETAVYYCAADTRHYRYGYWGQGTQVTVSS | low polyreactivity |
| QVQLVESGGGLVQAGGSLRLICAASGSIFADYAMGWYRQAPGKERELVAAITGSGGRTYYADSVKGRFTISRDNAKNTVYLQMNSLKPEDTAVYYCAAYQVVWDPYTRYDYWGQGTQVTVSS | low polyreactivity |
| QVQLVESGGGLVQAGGSLRLICAASGSIFAYYAMGWYRQAPGKERELVGTNYADSVKGRFTISRDNAKNTVYLQMNSLKPEDTAVYYCAASSRRYLWGFDYWGQGTQVTVSS | low polyreactivity |
| QVQLVESGGGLVQAGGSLRLICAASGSIFCTYAMGWYRQAPGKERELVAAITTSVGRTYYADSVKGRFTISRDNAKNTVYLHMNSLKPDDTAVYYCYAVRGGRYGLDYWGQGTHVTVSS | high polyreactivity |
| QVQLVESGGGLVQAGGSLRLICAASGSIFDKYARGWYRQEPGKERELVAAIDSGDTYYADSVKGRFTISRDNAKNTVYLQMNSLKPEDTAVYYCAADDVQYEYDYWGQGTQVTVSS | low polyreactivity |
| QVQLVESGGGLVQAGGSLRLICAASGSIFFSYAMGWYRQAPGKERELVAAIDYSGGGTYYADSVMGRFTISRDNAKNTVYLQMNSLKPEDTAVYYCNSDTEVWADTFISYRALNYWGQGTQVTVSS | low polyreactivity |
| QVQLVESGGGLVQAGGSLRLICAASGSIFFTYVMGWYRQSPGKERELVAAISSDDNTNYADSVKGRFTSSRDNAKNTVYLQMHSLKPEDTAVYYCNADTTRYPYYDYGYYDYDYWGQGTQVTVSS | low polyreactivity |
| QVQLVESGGGLVQAGGSLRLICAASGSIFLGYAMGWYRPAPGKERELVAAISTSGGGTYYADSVKGRFTISRDNAKNTVYLQMNSLKPEDTAVYYCNAVSHYKYDWGQGTQVTVSS | low polyreactivity |
| QVQLVESGGGLVQAGGSLRLICAASGSIFRGYTMGWYRQAPGKERELVATISWSGGSTYYADSVKGRFTISRDNAKNTVYLQMNSLKPEDTAVYYCAAVWYLGIPYDYWGQGTQVTVSS | high polyreactivity |
| QVQLVESGGGLVQAGGSLRLICAASGSIFRRYAMGWYRQAPGKERELVARITIRGGSTYYADSVKGRFTISRDNAKNTVYLQMNSLKPEDTAVYYCNTVVPASSGGAYRRYYYLGQGTQVTVSS | high polyreactivity |
| QVQLVESGGGLVQAGGSLRLICAASGSIFSIYAMGWYRQAPGKERELVAAITWGGGSTYYADSVKGRFTISRDNAKNTVYLQINSLKPEDTAVYDCAAESLTWYGTYYYWGQGTQVTVSS | high polyreactivity |
| QVQLVESGGGLVQAGGSLRLICAASGSIFSKYVMGWYREAPGKERDLVAAISWSGTRTYYADSVKGRFTISRDNAKNTVILQMNSMKAEDTAVYYCAARRLYAGHQYDYWGQGTIVTVSS | high polyreactivity |
| QVQLVESGGGLVQAGGSLRLICAASGSIFTKYTMGWSRQAPGKERELVAAITLRGTSTYYADSVKGRFTISRDNAMNTVYLQMNSLIPEDTAFYYCNKLYSWVVAYDYWGQGTQVTVSS | high polyreactivity |
| QVQLVESGGGLVQAGGSLRLICAASGSIFVNNGMGWYRQAPGKERELVAAIRLSTGSTYYADSVKGRFPISRDNAKNTVYLQMNSLKPEDTAVYYCATRYYIWGNWGQGTQVTVSS | high polyreactivity |
| QVQLVESGGGLVQAGGSLRLICAASGSIFWGYAIGWFRPAPGKERELVAGITATGGSTYYADSVKGRFTISRDNAKNTVYLPMNSLKPEDTAVYYCAAEHGRLATYTWWVIYDYWGHGTQVTVSS | low polyreactivity |
